Data reported in publication PMC3245471.

How the values were obtained:
[1] = molecular target: glucose 6-phosphate dehydrogenase from Leuconostoc mesenteroides, guanidine-denatured (Leuconostoc mesenteroides) (UniProt P11411)
[2] = molecular target: tobacco Trx f C71S mutant, His-tagged (Nicotiana tabacum); assay: non-reducing SDS-PAGE with Western blot
[3] = molecular target: tobacco Trx f C19/71S double mutant, His-tagged (Nicotiana tabacum); assay: non-reducing SDS-PAGE with Western blot

UniProt P11411, sequence (P11411 whole entry): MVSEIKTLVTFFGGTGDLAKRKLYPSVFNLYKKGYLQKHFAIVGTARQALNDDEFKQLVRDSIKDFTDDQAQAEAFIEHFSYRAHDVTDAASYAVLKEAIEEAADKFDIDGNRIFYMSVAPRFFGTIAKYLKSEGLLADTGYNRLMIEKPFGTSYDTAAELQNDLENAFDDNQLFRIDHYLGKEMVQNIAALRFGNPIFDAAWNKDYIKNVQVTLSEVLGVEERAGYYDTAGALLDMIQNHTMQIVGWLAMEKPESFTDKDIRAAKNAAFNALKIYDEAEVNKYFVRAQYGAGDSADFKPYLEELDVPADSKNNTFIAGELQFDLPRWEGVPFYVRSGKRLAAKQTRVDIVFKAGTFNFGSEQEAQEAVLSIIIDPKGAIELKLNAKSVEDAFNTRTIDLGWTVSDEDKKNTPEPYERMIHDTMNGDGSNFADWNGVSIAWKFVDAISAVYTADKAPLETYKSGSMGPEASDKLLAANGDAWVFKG

| Substance | chaperone foldase activity (G6PDH reactivation) relative to wild-type Trx f [1] [% decrease] | stoichiometry N [2] | stoichiometry N [3] |
| --- | --- | --- | --- |
| tobacco Trx f C71S mutant, His-tagged (enzyme) | 80 | 2 | – |
| tobacco Trx f C19/71S double mutant, His-tagged (enzyme) | 80 | – | 2 |
